# In patent publication US20200040057A1 (IMMATICS BIOTECHNOLOGIES, published 2020):
# Experiments:
# HLA-B*07 [1] = target: HLA-B*07 (human); test: UV peptide exchange ELISA; +++ = yield >50
# HLA-B*07 [2] = target: HLA-B*07 (human); test: UV peptide exchange ELISA; ++++ = yield >75%
Binder,peptide exchange yield (HLA-B*07 [1]) [%],peptide exchange yield (HLA-B*07 [2]) [%]
VWEPQGSSRSL,50 to 75,–
VPAQRLGLLL,50 to 75,–
LPLGGHKSL,50 to 75,–
LPVSPARAL,50 to 75,–
QPRLVPGETL,–,> 75
RPLPNSVIHV,50 to 75,–
VPAQRLGLL,–,> 75
LVILQHQAM,50 to 75,–
SPVFYVQTL,–,> 75
HVAQPAVVL,50 to 75,–
SSASFSSELFRH,50 to 75,–
SPRIPFSTF,–,> 75
APLHGGGSL,50 to 75,–
APTPRPKVL,–,> 75
LPALLRSGLTL,–,> 75
GSRPVTGSV,50 to 75,–
KPKVESQAL,–,> 75
GPFQRAAL,50 to 75,–
VAAAARLTL,50 to 75,–
RPRQTGALM,–,> 75
YPSPLNKHSF,50 to 75,–
LPMTVISVL,–,> 75
MPFRNIRSIL,50 to 75,–
RPYSIYPHGVTF,–,> 75
RPLPVSPARAL,50 to 75,–
MPRLLRLSL,50 to 75,–
NPERHKPSF,50 to 75,–

Binder,peptide exchange yield (HLA-B*07 [1]) [%],peptide exchange yield (HLA-B*07 [2]) [%]
RPVQGIPTY,50 to 75,–
RPSQLAPATL,50 to 75,–
IPIRVDQNGAF,50 to 75,–
MPAGGGPRSL,–,> 75
KTKSLAQQL,50 to 75,–
RPPPSRRAVL,50 to 75,–
YPMIPPAQL,50 to 75,–
VPVSHPVL,–,> 75
VPVSRPVL,–,> 75
RPRLRDLPAL,50 to 75,–
GPKKFIVKL,50 to 75,–
VPRRPARAL,50 to 75,–
SAQSLHPVL,50 to 75,–
KPRTIYSSL,–,> 75
LPVSSPVTL,–,> 75
SVAIAHGVF,–,> 75
APFHIDRLF,50 to 75,–
FPRLVGPDFF,–,> 75
SPSSVFTSK,50 to 75,–
APRGSPPI,50 to 75,–
FPNVYSTLVL,–,> 75
TVRPKNAAL,50 to 75,–
SPSQTVQRAV,–,> 75
APLKMLAL,–,> 75
LPRALMRST,50 to 75,–
VPYYPRANL,50 to 75,–
VPGSDPARYEFL,50 to 75,–
